This is an account of results in US20210198366A1 (NGM BIOPHARMACEUTICALS, published 2021).

As usually defined, the Kd is the equilibrium constant for the complex coming apart. By IC50 is commonly meant the concentration needed to halve the response being measured.

For test [1], the target named is T1, human B7-H7 (soluble analyte in SPR) (human, UniProt Q9UM44 23-344, limits assumed).
T1 sequence: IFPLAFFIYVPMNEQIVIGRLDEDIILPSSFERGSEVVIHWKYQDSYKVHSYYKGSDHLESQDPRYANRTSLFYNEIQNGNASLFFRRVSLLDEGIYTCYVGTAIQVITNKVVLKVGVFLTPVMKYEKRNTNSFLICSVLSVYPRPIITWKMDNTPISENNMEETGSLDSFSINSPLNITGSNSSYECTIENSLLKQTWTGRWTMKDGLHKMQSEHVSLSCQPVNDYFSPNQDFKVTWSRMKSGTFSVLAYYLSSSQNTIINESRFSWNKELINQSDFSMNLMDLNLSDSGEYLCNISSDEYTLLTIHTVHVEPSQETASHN
Description: SPR (Biacore), antibody captured by anti-Fc on CM5 chip, B7-H7 injected, 37 C. As to the method: The binding affinities of exemplary anti-B7-H7 antibodies to human B7-H7 and cyno B7-H7 were measured using SPR technology (Biacore system, GE Healthcare Life Sciences). Briefly, anti-Fc antibody (Sigma-Aldrich) was immobilized on all four flow cells of a CM5 chip using amine coupling reagents (GE Healthcare LifeSciences). Exemplary antibodies were captured on flow cells 2, 3, and 4 using flow cell 1 as a reference. Human B7-H7 or cyno B7-H7 (samples ranging from 0.62-40 nM) were injected at a flow rate of 50 μL/min at 37° C. Kinetic data were collected over time and fit using the simultaneous global fit equation to yield affinity constants (KD values) for each antibody.
A general note: SPR reads the build-up and loss of mass on a sensor chip optically.

Test [2] concerns the target T2, human B7-H7 expressed on the cell surface (human, UniProt Q9UM44 23-414).
T2 construct: also called hB7-H7; HHLA2
T2 sequence: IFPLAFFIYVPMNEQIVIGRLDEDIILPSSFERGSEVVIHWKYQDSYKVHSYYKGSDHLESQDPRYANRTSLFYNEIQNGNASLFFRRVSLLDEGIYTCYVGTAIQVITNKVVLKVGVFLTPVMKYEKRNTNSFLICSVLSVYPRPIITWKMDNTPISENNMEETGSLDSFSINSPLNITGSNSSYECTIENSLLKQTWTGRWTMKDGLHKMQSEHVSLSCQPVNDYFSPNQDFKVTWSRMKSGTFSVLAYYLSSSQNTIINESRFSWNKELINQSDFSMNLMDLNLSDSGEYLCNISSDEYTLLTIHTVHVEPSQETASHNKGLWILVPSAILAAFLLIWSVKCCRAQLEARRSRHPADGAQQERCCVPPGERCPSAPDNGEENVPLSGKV
Description: FACS on HEK-293T cells expressing human B7-H7.

The target in test [3] is T3, soluble human B7-H7-Fc fusion protein (extracellular region of human B7-H7, aa 23-344, and a human Fc … (human, UniProt Q9UM44 23-344)).
T3 construct: also called hB7-H7-Fc; soluble B7-H7
T3 sequence: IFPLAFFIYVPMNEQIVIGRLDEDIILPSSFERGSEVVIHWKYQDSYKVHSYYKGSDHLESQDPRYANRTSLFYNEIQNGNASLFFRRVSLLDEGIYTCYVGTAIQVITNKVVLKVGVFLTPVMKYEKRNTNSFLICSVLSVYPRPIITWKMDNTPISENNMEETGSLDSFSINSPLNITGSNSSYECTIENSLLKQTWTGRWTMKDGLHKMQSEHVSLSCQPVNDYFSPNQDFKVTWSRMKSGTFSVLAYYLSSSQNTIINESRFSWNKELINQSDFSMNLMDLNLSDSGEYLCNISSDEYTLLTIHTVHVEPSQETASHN
Nature of the test: FACS competition: antibody titrated against soluble hB7-H7-Fc binding to HEK-293 cells expressing human CD28H. As to the method:
(§1) Exemplary anti-B7-H7 antibodies identified by ELISA and FACS were tested for their ability to block binding of soluble B7-H7 to receptors KIR3DL3 or CD28H in a FACS assay. HEK-293 cells were transiently transfected with a construct encoding (i) a membrane-bound KIR3DL3 protein or (ii) a membrane-bound CD28H protein. After 48 hours, transfected cells were suspended in ice cold PBS containing 1% FBS and 0.1% sodium azide and incubated on ice in the presence of […]/ml of soluble human B7-H7-Fc protein and antibodies 2D7, 1D3, 28F3, 16D5, 2F10, 5F7, 5B10, 5C9, or 3H6 (serially diluted from […] to 4.6 ng/ml). A second incubation with an anti-human Fc secondary antibody was performed to detect cells bound by the soluble B7-H7-Fc. The cells were analyzed on a BD FACSCalibur instrument (BD Biosciences) and the data was processed using FlowJo software. Calculated IC50s are shown Table 12.

For test [4], the target named is T3, soluble human B7-H7-Fc fusion protein …. Nature of the test: FACS competition: antibody titrated against soluble hB7-H7-Fc binding to HEK-293 cells expressing human KIR3DL3. How it is done:
as §1

The target in test [5] is T4, cynomolgus monkey B7-H7 expressed on HEK-293T cells (cynomolgus monkey).
T4 construct: also called cyno B7-H7; cells expressing cyno B7-H7
T4 chain: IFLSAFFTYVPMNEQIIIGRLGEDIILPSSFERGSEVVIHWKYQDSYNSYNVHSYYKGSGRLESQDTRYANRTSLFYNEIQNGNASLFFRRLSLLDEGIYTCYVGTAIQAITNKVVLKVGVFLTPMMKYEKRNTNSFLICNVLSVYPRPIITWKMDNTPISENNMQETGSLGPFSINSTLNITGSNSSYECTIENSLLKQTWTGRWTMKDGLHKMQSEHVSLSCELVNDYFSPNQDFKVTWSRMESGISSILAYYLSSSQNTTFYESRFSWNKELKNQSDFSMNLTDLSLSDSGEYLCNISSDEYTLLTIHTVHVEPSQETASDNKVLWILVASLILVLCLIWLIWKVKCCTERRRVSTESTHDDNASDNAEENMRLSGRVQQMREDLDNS
Description: FACS on HEK-293T cells expressing cyno B7-H7.

Test [6] addresses T2, human B7-H7 expressed on the cell …. Description: cell-based or functional assay.

B1: anti-B7-H7 antibody 16D5 (antibody, V domains shown)
VH: QVQLQQSAAELARPGASVKMSCKASGYTFTTYTMHWVKQRPGQGLEWIGYINPSRGYSDYSQKFQGKSTLTTDKSSNTAYIQLTSLTSEDSAVYFCARGGYDFDYWGQGTTLTVSS
VL: DIVMTQSHKFMSTSVGDRVSITCKASQDVGTAVAWYQQKPGQSPKLLLYWASTRHTGVPDRFTGSGSGTDYTLTISSVQAEDLALYHCQQHFITPYTFGGGTKLEIK
notes: Mouse hybridoma antibody
Regarding B1, binding in test [1] was characterised by a dissociation constant (Kd) of 0.2 nM. The values for the MFI in test [2] and in test [5] were 165 MFI and 199 MFI, respectively. Also, the IC50 was determined as 2 nM in test [3] and 1.7 nM in test [4]. Moreover, the “Induction of NK-92 cytotoxicity EC50” value in test [6] came to 0.5 nM. The “Induction of NK-92 cytotoxicity Relative efficacy” value in test [6] worked out at 135%.

B2: anti-B7-H7 antibody 5F7 (antibody, V domains shown)
VH: QEQLQQPGTELVKPGASVKISCKASGYTFSSYSMHWVKLTPGQGLEWMGTIYPGNENTSYNQKFKGKATLTADKSSSTAYMQLSSLTSEDSAVYYCARGGYYFDYWGQGTTLTVSS
VL: DIVMTQSHKFLSTSVGDRVSITCKASQDVSTAVAWYQQKPGQSPKLLIYWASTRHTGVSDRFTGSGSGTDFTLTISSVQAEDLALYYCQQHFDIPYWFGGGTKLEIK
notes: Mouse hybridoma antibody
On to B2, for which, in test [1], the affinity, expressed as Kd, was 0.6 nM. Besides, the MFI in test [2] was 163 MFI; in test [5], 195 MFI. Further, the values for the half-inhibitory concentration (IC50) in test [3] and in test [4] were 1.8 nM and 1.6 nM, respectively. Also, in test [6], the “Induction of NK-92 cytotoxicity EC50” value came out at 0.6 nM. Also, in test [6], the “Induction of NK-92 cytotoxicity Relative efficacy” value turned out to be 151%.

B3: anti-B7-H7 antibody 3H6 (antibody, V domains shown)
VH: EVQLQQSGPELVKPGASVKISCKTSGYTFTEYTMHWVKQSHGKSLEWIGGINPNNGGAPYNQKFKGKATLTVDKSSSTAYMELRSLTSEDSAVYYCARGGYYFDYWGQGTTLTVSS
VL: DIVMTQSHKFMSTSVGDRVSITCKASQDVSTAVAWYQQKSGQSPKLLIYWASTRHTGVPDRFTGSGSGTDYTLTISSVQAEDLALYYCQQHYDTPFTFGGGTKLEIK
notes: Mouse hybridoma antibody
On to B3, for which, in test [1], the affinity, expressed as Kd, was 0.8 nM. The MFI stood at 41 MFI in test [2] and 568 MFI in test [5]. Further, the concentration for half-maximal inhibition (IC50) turned out to be 2.5 nM in test [3] and 2.7 nM in test [4]. In addition, the “Induction of NK-92 cytotoxicity EC50” value in test [6] is 0.8 nM. The “Induction of NK-92 cytotoxicity Relative efficacy” value in test [6] was determined as 105%.

B4: anti-B7-H7 antibody 5B10 (antibody, V domains shown)
VH: EVQLQQSGPELEKPGASVKISCKASGYSFTGYNMNWVKQSNGKSLEWIGNIDPYSGGSTYNQKFKGKATLTVDKSSSTASLQLKSLTSEDSSVYYCARSFYDAPYLTYWGQGTLVTVSA
VL: DIQMTQSPTSLSASVGETVTITCRASENIFIYLAWYQQKQGKSPQLLVFNAKTLAEGVPSRFSGSGSGTQFSLKINSLRPEDFGTYYCQHHYGTPPTFGGGTKLEV
notes: Mouse hybridoma antibody
With B4, the equilibrium dissociation constant (Kd) in test [1] was 4 nM. Besides, the MFI worked out at 82 MFI in test [2] and 93 MFI in test [5]. Besides, the IC50 in test [3] is 3.4 nM; in test [4] it was 2.4 nM. Moreover, the “Induction of NK-92 cytotoxicity EC50” value in test [6] is 1.6 nM. The “Induction of NK-92 cytotoxicity Relative efficacy” value in test [6] was 148%.

B5: anti-B7-H7 antibody 1D3 (antibody, V domains shown)
VH: EVQLQQSGPELEKPGASVKISCKASGYSFTGYNMNWVKESNGRSLEWIGNIDPYSGGSTYNQKFKGKATMTVDKSSSTAYMQLKSLTSEDSAVYYCARSVYDAPWLAHWGQGTLVTVSA
VL: DIQMTQSPASLSASVGETVTITCRASENIYIYLAWYQQKQGKSPQLLVYNAKTLAEGVPSRFSGSGSGTQFSLKINRLQPEDFGNYYCQHHYGTPPTFGGGTKLEIK
notes: Mouse hybridoma antibody
B5 registered a dissociation constant Kd in test [1] of 0.9 nM. Further, the results for the MFI in test [2] and in test [5] were 247 MFI and 214 MFI, respectively. The values for the IC50 in test [3] and in test [4] were 8 nM and 5 nM, respectively. In test [6], the “Induction of NK-92 cytotoxicity EC50” value amounted to 1.2 nM. In test [6], the “Induction of NK-92 cytotoxicity Relative efficacy” value was 136%.

B6: anti-B7-H7 antibody 28F5 (antibody, V domains shown)
VH: QVQLKESGPGLVAPSQSLSITCTVSGFSLTGYGVNWVRQPPGKGLEWLGVIWGDGSTDYNSVLKSRLSISKDNSKSQVFLKMNSLQTDDTARYYCAREATEYLYWYFDVWGAGTTVTVSS
VL: DIVLTQSPASLAVSLGQRATISCRASESVEYYGSSLMQWYQQKPGQPPKLLIFAASNVESGVPPRFSGSGSGTDFNLNIHPVDEDDIAMYFCQQGRRVPWTFGGGTKLEIK
notes: Mouse hybridoma antibody
In the case of B6, the dissociation constant Kd in test [1] stood at 0.4 nM. The MFI in test [2] worked out at 152 MFI; in test [5], 165 MFI. Besides, the concentration for half-maximal inhibition (IC50) in test [3] was 2.7 nM; in test [4], 2.6 nM. Also, the “Induction of NK-92 cytotoxicity EC50” value in test [6] stood at 0.5 nM. Also, in test [6], the “Induction of NK-92 cytotoxicity Relative efficacy” value came to 150%.

B7: anti-B7-H7 antibody 2F10 (antibody, V domains shown)
VH: EIQLQQTGPELVKPGASLRISCKASGYSFTDYIIVWVKQNQGKNLDWIEKINPYYGTTTYNLRFEDKATLTVNKSSTTAYMQLNSLTSEDSAVYYCARWDYVSTLFAMDYWGQGTSITVSS
VL: DIVMTQSHKVMSTSVGDRVSIICKASQDVGTAVAWYQQKPGQSPKLLIYWASTRHTGVPDRFTGSGSGTDFILTITNVQSENLANYFCQQYKRYYTFGGGTKLEIK
notes: Mouse hybridoma antibody
Regarding B7, in test [1], the Kd amounted to 0.3 nM. In addition, the MFI is 101 MFI in test [2] and 134 MFI in test [5]. In addition, the IC50 is 3 nM in test [3] and 2.5 nM in test [4]. Besides, the “Induction of NK-92 cytotoxicity EC50” value in test [6] is 0.9 nM. For the same molecule, the “Induction of NK-92 cytotoxicity Relative efficacy” value in test [6] came to 146%.

B8: anti-B7-H7 antibody 5C9 (antibody, V domains shown)
VH: QVQLQQSGAELAKPGASVKMSCKASGYTFTSFWIHWIKQRPGQGLEWIGYIIPNTDYTEYNQKFKDKATFTADKSSSTAYMQLSSLTSEDSAVFYCARGLRGAYYFDYWGQGTTLTVSS
VL: DIVLTQSPASLAVSLGLRATISCRSSQSVSTSTNGYMHWYQQKPGQPPKLLIMYASNLESGVPARFSGSGSGTDFTLNIHPVDEEDTATYYCQHSWVLPYTFGGGTKLEIK
notes: Mouse hybridoma antibody
In turn, B8 registered a dissociation constant (Kd) in test [1] of 0.8 nM. The results for the MFI in test [2] and in test [5] were 185 MFI and 176 MFI, respectively. The IC50 in test [3] stood at 3.4 nM; in test [4], 3 nM. The “Induction of NK-92 cytotoxicity EC50” value in test [6] is 1.6 nM. Moreover, the “Induction of NK-92 cytotoxicity Relative efficacy” value in test [6] stood at 155%.
